Assay results from doi:10.1101/2020.06.09.141986.

Molecular target: Aldob (aldolase B) (UniProt P05062)
Assay: anti-Flag co-IP, immunoblot
Conditions: reference: Akt1 wild type

binding against the reference (sites S473)	binding against the reference (sites T308)	Substance
weaker	–	Akt1 (from UniProt P31749) Akt1-S473A
–	weaker	Akt1 (from UniProt P31749) Akt1-T308A
